Results: paper PMC6396024, “Artemin and an Artemin-Derived Peptide, Artefin, Induce Neuronal Survival, and Differentiation Through Ret and NCAM” (Frontiers in Molecular Neuroscience, 2019)
Blank lines part the entries; values can stand above or below the molecule they belong to. Bridge positions count the residues as written; N and C are the ends. Ends that are not written are not given here. I, II: the chains in the order shown.

What was measured:
GFRα1 [1] = assay: SPR binding to immobilized GFRα1/Fc; settings: artefin 15.6 μM
GFRα2 = assay: SPR binding to immobilized GFRα2/Fc; settings: artefin 15.6 μM
[2] = Circular dichroism spectroscopy; assay type: physicochemical; settings: 10 μM, 10 mM NaH2PO4 pH 7.0, room temperature, tetrameric peptide
Protocol: Circular dichroism (CD) spectra were measured over the range 190–250 nm using a Jasco J-810 spectropolarimeter in cells with path length 1 mm at room temperature. The peptide was dissolved in 10 mM NaH2PO4 buffer, pH 7.0, to the final concentration 10 μM. Data were recorded at a scan speed of 20 nm/min with 10 repeat scans accumulated to obtain the final average spectra. Following the buffer subtraction, the observed ellipticity θ (mdeg) was converted to mean residue ellipticity [θ] (deg cm^2/dmol) using the following relationship [θ] = 100θ /(lcn) where ‘l’ is path length in centimeters, ‘c’ is the millimolar concentration, and ‘n’ is the number of residues in the peptide.

GFRα1 [3] = test system: GFRα1; parameters: method as in Scott and Ibañéz, 2001; settings: previously shown; ref Scott and Ibañéz, 2001; cited from earlier work
[4] = test system: patients with lumbosacral radiculopathy; settings: intravenous, Phase 2; particularly at the lowest dose; ref Backonja et al., 2017; cited from earlier work
Description: (§1) Results from Phase 1 clinical trials ([Rolan et al., 2015]; [Okkerse et al., 2016]) further support the application of ARTN for treatment of peripheral nerve injury and attenuation of neuropathic pain. A recent Phase 2 trial (SPRINT) that evaluated the sa ...

[5] = test system: surgically and chemically induced nerve injury models; settings: systemic treatment; ref Gardell et al., 2003; Bennett et al., 2006; Wang et al., 2008; Wong et al., 2015; cited from earlier work
Description: as §1

dopaminergic neurons = settings: in vitro; ref Rosenblad et al., 2000; Sariola and Saarma, 2003; cited from earlier work
Description: (§2) Artemin (ARTN) is a member of the glial cell line-derived neurotrophic factor family ligands (GFLs) which includes three other members: glial cell line-derived neurotrophic factor (GDNF), neurturin (NRTN), and persephin (PSPN) ([Baloh et al., 1998b]; [Airaksinen and Saarma, 2002]). GFLs affect the generation, survival, and growth of neurons in different CNS neuronal populations, including midbrain dopaminergic neurons, central motor neurons, and noradrenergic neurons ([Airaksinen and Saarma, 2002]). Similar to GDNF, ARTN is a potential neuroprotective agent as it promotes the survival of dopam ...

mice = settings: intracerebroventricular, ref Mannelli et al., 2011; cited from earlier work
Description: as §2

binding to GFRα1 (GFRα1 [1]): binds to GFRα1
binding to GFRα2 (GFRα2): binds to GFRα1 and GFRα2
secondary structure in solution (far-UV CD) [2]: a-helix confirmation is dominant
Molecule: I: RSPHDLSLASLLGAGKK-NH2 / II: RSPHDLSLASLLGAGK / III: RSPHDLSLASLLGAG / IV: RSPHDLSLASLLGAG (amide I:16-IV:C, I:17-II:C, II:16-III:C; C-terminus assumed) [artefin]
far-UV CD bands ([2]; 190–250 nm): negative band at 208 nm, a shoulder at 222 nm, and a positive band at 193 nm

B1: recombinant human Artemin (ARTN) (ligand, UniProt Q5T4W7 108-220, looked up)
chain: AGGPGSRARAAGARGCRLRSQLVPVRALGLGHRSDELVRFRFCSGSCRRARSPHDLSLASLLGAGALRPPPGSRPVSQPCCRPTRYEAVSFMDVNSTWRTVDRLSATACGCLG
notes: Artemin (ARTN), human, UniProt D3DPX9; source: bought: R&D Systems
interaction with GFRα1 (GFRα1 [3]): previously been shown to interact with GFRα1
reducing pain in patients with lumbosacral radiculopathy [4]: showed evidence of pain relief
effect on behavioral symptoms of neuropathic pain [5]: mitigates behavioral symptoms associated with neuropathic pain
survival of dopaminergic neurons (dopaminergic neurons): promotes the survival of dopaminergic neurons in vitro
antidepressant effects (mice): dose-dependent antidepressant effects
